T1: CD2 on Jurkat cells (human, UniProt P06729 25-351)
T1 construct: whole, on cells
T1 sequence (looked up): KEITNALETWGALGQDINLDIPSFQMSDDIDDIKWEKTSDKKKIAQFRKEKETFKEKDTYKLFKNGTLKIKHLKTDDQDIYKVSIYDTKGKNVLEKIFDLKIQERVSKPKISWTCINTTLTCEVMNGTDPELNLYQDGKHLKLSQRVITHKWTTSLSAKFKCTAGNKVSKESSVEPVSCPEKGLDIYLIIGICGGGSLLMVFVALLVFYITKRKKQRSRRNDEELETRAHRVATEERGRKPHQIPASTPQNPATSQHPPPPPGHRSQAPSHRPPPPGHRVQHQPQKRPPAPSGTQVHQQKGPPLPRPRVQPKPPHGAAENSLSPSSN


Tests used:
[1] = molecular target: T2, LFA-1 (heterodimeric CD11a/CD18) (human, UniProt P20701 26-1170; P05107 23-769); assay: competition on Jurkat cells at 4 C; HI111 at 1 microg/mL against 35S-labelled 3D-ICAM-1/Fc
T2 construct: whole, on cells; Endogenous LFA-1 on Jurkat cells (and on human PBMC) in the cell assays; In the BIAcore assay and the co-immunoprecipitations it was the whole heterodimer from octylthioglucoside lysates of Jurkat cells; also called LFA-1 molecule; LFA-1 counter receptor

[2] = molecular target: T3, 3D-ICAM-1/Fc chimeric protein (three first extracellular domains of ICAM-1 fused to the Fc fragment of human … (human, UniProt P05362 28-311, limits assumed, 35S methionine metabolic label in the ICAM-1 binding assays)); assay: coprecipitation
T3 construct: domain: three first extracellular domains of ICAM-1; Expressed in 293 cells and purified on an anti-human Fc agarose column; also called soluble ICAM-1; soluble ICAM-1/Fc; not shown: Fc fragment of human IgG1

[3] = molecular target: T2, LFA-1 (heterodimeric CD11a/CD18); assay: BIAcore, from the ratio of the rate constants; ESM-1 over LFA-1 captured by immobilized HI111
Method: The affinity constant was calculated from the equation Kd=kd/ka.
To better define the interaction between LFA-1 and ESM-1, a real-time observation by BIAcore analysis was carried out. Sensor chip was filled with detergent lysates of Jurkat cells in order to capture functional LFA-1 molecules. Specific binding of the heterodimeric form of LFA-1 to the anti-CD11a mAb coupled censorship was observed. In this assay, anti-CD11a mAb (HI111) was immobilized on the surface of the carboxymethyl 5 sensor chip as described in Materials and Methods. The binding of heterodimeric LFA-1 to mAb coated chip was consistently detected. The presence of both CD11a chain and CD18 chain was checked by injecting either another anti-CD11a mAb (G43-25B), or an anti-CD18 mAb in the LFA-1 captured channel. As reported in FIG. 18A, LFA-1 was strongly captured under its heterodimeric form, which was essential to keep functionality of LFA-1. Next, we have also examined the interaction of LFA-1 and purified human ESM-1 by BIAcore biosensor. […] No interaction was detected between the mAb coated surface or control surface and ESM-1 at the highest concentration used in this experiment (data not shown). Purified ESM-1 was then injected at indicated concentrations to the LFA-1 captured surface, and the response (in resonance units) versus time (in seconds) was recorded. […]

CD2 on Jurkat cells = molecular target: T1, CD2 on Jurkat cells; assay: co-immunoprecipitation with anti-CD2 mAb from lysates of Jurkat cells incubated with 300 ng/mL ESM-1; ESM-1 ELISA of eluate
Method: (§1) FIGS. 17A–B: An anti-CD11a mAb coimmunoprecipitates ESM-1 with LFA-1 and increases ESM-1 binding to Jurkat cells. A. Coimmunoprecipitation of ESM-1 with LFA-1 : Jurkat cells were incubated with ESM-1 for 1 hour at 4° C. and immunoprecipitations were done with different mAbs according to the procedure previously described (none, anti-ESM-1 (MEC15), anti-CD3, anti-CD11a (1), ie clone HI111, anti-CD11a (2), ie clone G43-25B anti-CD18, anti-CD44, anti-CD2). Beads were washed and eluted. ESM-1 contents from eluates were analyzed by a specific ELISA. B. Activation of the binding of ESM-1 by an anti-CD11a mAb: Jurkat cells were firstly incubated in binding medium with different mAbs (none, anti-CD11a (1), anti-CD11a (2), IgG control) for 1 h at room temperature and secondly with ESM-1 for 1 h at 4° C. Cells were washed and lysed. ESM-1 was quantified by a specific ELISA in lysates (n=5).

CD44 on Jurkat cells = molecular target: T4, CD44 on Jurkat cells (human, UniProt P16070 21-742); assay: co-immunoprecipitation with anti-CD44 mAb from lysates of Jurkat cells incubated with 300 ng/mL ESM-1; ESM-1 ELISA of eluate
T4 construct: whole, on cells
Method: as §1

[4] = molecular target: T2, LFA-1 (heterodimeric CD11a/CD18); assay: BIAcore, purified ESM-1 (5 concentrations, 50 to 300 nM) over LFA-1 from Jurkat lysate captured by immobilized HI111, 25 C, PBS with 1 mM MgCl2 and 1 mM MnCl2
Method: LFA-1 molecules from the Jurkat lysates could only be fixed by immuno-affinity procedure. 200 millions of Jurkat cells were lysed in 2 mL of lysis buffer (PBS, 1 mM MgCl2, 1 mM MnCl2, complete anti-proteases cocktail EDTA-free and 5 mM octylthioglucoside) for 30 min at 4° C. After removal of insoluble material by centrifugation and incubation in a sonication bath, the lysate was injected at a flow rate of 5 microL/min for 30 min at 25° C. in order to immobilize approximatively 1500 RU of LFA-1 molecules. Next, CD11a mAb (G43-25B), CD18 mAb and purified ESM-1 were diluted in running buffer (PBS, 1 mM MgCl2, 1 mM MnCl2) and injected at a flow rate of 5 microL/min for 5 min at 25° C. The association rate constant (ka) and the dissociation rate constant (kd) were fitted calculated according to the BIAevaluation software version 3.1 provided by the manufacturer. The affinity constant was calculated from the equation Kd=kd/ka.
To better define the interaction between LFA-1 and ESM-1, a real-time observation by BIAcore analysis was carried out. Sensor chip was filled with detergent lysates of Jurkat cells in order to capture functional LFA-1 molecules. […] The binding of heterodimeric LFA-1 to mAb coated chip was consistently detected. […] No interaction was detected between the mAb coated surface or control surface and ESM-1 at the highest concentration used in this experiment (data not shown).

T2 sequence (P20701 26-1170, chain 1 of 2): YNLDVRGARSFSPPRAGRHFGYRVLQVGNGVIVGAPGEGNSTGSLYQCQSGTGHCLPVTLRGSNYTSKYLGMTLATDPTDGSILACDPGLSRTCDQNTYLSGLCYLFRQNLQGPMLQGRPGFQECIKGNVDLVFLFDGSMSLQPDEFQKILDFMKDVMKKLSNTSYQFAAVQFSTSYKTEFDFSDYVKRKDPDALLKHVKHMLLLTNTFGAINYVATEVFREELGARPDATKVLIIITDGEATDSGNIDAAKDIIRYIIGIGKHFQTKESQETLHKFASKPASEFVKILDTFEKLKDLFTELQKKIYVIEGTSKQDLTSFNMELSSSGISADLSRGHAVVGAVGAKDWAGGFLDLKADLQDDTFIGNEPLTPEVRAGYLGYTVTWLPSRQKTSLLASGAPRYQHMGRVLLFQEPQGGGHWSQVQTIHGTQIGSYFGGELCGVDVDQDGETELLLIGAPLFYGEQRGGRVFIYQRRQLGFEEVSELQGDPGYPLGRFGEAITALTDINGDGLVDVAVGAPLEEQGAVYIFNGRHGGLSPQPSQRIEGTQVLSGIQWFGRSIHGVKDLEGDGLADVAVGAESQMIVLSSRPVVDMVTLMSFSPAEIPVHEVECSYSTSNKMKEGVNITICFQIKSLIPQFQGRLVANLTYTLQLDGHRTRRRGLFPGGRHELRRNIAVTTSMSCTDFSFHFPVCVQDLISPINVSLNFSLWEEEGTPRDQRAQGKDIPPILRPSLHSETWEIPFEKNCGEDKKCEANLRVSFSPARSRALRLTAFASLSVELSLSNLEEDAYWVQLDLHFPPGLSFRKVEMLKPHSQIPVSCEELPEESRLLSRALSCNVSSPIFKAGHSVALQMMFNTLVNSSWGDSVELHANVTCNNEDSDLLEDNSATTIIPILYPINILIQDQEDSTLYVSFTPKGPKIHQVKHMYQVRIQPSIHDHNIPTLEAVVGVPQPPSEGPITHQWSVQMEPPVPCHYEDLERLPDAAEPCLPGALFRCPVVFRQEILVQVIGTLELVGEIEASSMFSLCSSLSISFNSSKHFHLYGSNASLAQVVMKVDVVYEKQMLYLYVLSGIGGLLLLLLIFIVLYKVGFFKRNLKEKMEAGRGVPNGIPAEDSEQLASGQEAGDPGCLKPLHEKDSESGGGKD
T2 sequence (P05107 23-769, chain 2 of 2): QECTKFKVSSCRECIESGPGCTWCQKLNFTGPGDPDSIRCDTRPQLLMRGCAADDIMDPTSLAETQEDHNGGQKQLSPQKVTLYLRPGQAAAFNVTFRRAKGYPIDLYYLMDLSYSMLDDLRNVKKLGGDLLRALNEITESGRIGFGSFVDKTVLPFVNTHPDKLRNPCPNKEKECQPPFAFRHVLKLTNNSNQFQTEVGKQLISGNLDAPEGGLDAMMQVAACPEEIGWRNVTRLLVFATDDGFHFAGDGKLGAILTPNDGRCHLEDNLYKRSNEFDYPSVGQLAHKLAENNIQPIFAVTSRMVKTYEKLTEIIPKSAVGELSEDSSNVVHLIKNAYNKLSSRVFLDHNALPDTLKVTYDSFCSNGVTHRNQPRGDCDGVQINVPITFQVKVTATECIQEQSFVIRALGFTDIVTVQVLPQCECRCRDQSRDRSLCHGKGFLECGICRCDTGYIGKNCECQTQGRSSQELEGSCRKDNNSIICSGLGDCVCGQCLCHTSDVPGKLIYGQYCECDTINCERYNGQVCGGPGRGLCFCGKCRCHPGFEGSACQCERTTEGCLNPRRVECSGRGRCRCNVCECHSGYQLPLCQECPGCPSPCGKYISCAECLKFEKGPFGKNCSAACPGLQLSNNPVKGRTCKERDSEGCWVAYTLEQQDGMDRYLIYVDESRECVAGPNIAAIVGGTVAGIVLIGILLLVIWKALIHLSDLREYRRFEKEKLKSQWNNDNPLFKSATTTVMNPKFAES
T3 sequence (P05362 28-311 limits assumed, stated change not applied): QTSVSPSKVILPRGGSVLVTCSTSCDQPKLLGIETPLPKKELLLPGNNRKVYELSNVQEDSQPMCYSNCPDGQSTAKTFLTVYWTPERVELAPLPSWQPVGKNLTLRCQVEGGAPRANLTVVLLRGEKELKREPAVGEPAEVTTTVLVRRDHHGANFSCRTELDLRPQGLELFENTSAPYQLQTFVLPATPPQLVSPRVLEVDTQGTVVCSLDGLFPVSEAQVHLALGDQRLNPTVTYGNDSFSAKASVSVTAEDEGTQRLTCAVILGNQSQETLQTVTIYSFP
T4 sequence (P16070 21-742): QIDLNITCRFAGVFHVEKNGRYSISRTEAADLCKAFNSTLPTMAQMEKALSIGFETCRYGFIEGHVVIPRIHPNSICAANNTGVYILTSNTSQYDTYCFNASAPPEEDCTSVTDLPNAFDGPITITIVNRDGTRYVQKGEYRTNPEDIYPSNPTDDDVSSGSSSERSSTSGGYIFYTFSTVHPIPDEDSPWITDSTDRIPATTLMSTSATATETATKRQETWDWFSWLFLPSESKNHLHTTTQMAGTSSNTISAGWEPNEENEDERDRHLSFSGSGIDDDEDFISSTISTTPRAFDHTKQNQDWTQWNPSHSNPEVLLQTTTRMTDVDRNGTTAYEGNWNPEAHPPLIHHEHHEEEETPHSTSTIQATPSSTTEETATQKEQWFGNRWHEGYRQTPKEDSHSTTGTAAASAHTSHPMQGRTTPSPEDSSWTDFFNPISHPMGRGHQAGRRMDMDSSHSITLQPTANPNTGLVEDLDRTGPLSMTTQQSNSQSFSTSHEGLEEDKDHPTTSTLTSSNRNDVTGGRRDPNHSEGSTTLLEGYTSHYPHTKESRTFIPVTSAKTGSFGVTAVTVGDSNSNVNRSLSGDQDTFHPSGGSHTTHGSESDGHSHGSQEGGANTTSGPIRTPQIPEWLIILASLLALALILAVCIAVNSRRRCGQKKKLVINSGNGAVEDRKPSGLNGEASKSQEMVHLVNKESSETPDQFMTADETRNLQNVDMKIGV

Row | labelled ICAM-1 still bound (cpm) [1] | binding result [2] | Kd [3] | binding result (CD2 on Jurkat cells) | binding result (CD44 on Jurkat cells) | koff [4] | kon [4] | Molecule
1 | 837 cpm | – | – | – | – | – | – | anti-CD11a mAb clone HI111 (antibody)
2 | – | no binding | 18.7 nM | no binding | no binding | 0.000825 s⁻¹ | 44100 M⁻¹ s⁻¹ | secreted ESM-1 protein (Endothelial Cell Specific Molecule-1), purified wild-type form (ligand, The secreted form runs at about 50 kD and is described as glycosylated (a proteoglycan); also called ESM/WT; extracellular ESM-1) WSNNYAVDCPQHCDSSECKSSPRCKRTVLDDCGCCRVCAAGRGETCYRTVSGMDGMKCGPCLRCQPSNCEDPFGEEFGICKDCPYGTFGMDCRETCNCQSCICDRGTGKCLKFPFFQYSVTKSSNRFVSLTEHDMASGDGNIVREEVVKENAAGSPVMRKWLNPR
